According to patent US8697369B2, “Method for screening a test substance for activating a receptor associated with FGF 21 activity” (National Institute of Advanced Industrial Science and …, priority 2007, dated 2014):

Assays:
[1] = biological target: T1, humanized FGFR3c/humanized betaKlotho (hβKlotho)-expressing cells (Homo sapiens, UniProt P22607+Q86Z14, A441S/A461E/A470D/A499P/A500N/A559S/A717S/A734V/A765M/C582S/D512S/D516E/D576E/D580N/D722E/D758Q/D785E/DEL405-414/E426D/E447G/E729D/E768D/F566Y/F579Y/F591S/F767L/G446S/G448T/G548D/G773S/G774F/H721N/I440P/I494L/I698V/I726M/INS417HSQMAVHKLAKSI/INS423TV/INS780T/K420R/K464R/K501R/K583H/L398M/L425A/L457Y/L554I/L645I/L752V/M488L/N428S/N434G/N453G/N644H/P401G/P402T/P436L/P502V/P584N/P778R/Q611K/Q775P/R397K/R399K/R416D/R498K/R568Q/S432N/S468P/S578C/S781C/T435V/T450M/T473V/T504K/T581P/T590S/T753A/T757N/V503T/V523I/V642I/V670I/V751I/V754L); test: DNA synthesis in humanized FGFR3c/humanized betaKlotho-expressing BaF3 cells; assay type: cell-based; settings: humanized FGFR3c and humanized betaKlotho; 10 μg/ml heparin
T1 construct: expressed in transfected cells; host or cells: BaF3 (mouse pro-B) cells
Protocol: The homology between human FGFR3 and mouse FGFR3 at the amino acid sequence level is 93%. […] The cDNA of humanized FGFR3c was prepared from a commercially available human RNA sample (Takara Bio Inc.) by PCR. The sequence of its intracellular portion was substituted with the sequence of humanized FGFR1, and it was then introduced into an expression vector having an SRalpha promoter (pSRalpha). The FGFR3c expression vector was introduced into BaF3 cells by an electroporation method, so as to obtain FGFR3c-expressing BaF3 cells as G418-resistant clones. In the case of FGFR3c/betaKlotho-co-expressing cells, a betaKlotho expression vector was introduced into the FGFR3c-expressing BaF3 cells, so as to obtain the aforementioned cells as Puromycin-resistant clones. In the presence of heparin, humanized FGF21 was added in various types of concentrations to FGFR3c-expressing cells or FGFR3c/betaKlotho-co-expressing cells, and the amount of DNA synthesized was then measured.

[2] = test system: 3T3-L1 fibroblasts forced to express betaKlotho; test: Phosphorylation of FRS2 and MAPK in undifferentiated 3T3-L1 cells forced to express betaKlotho; assay type: cell-based; settings: betaKlotho expression vector; FGF21 1.1 μg/ml and 4.5 μg/ml; 10 minutes
Protocol: A betaKlotho expression vector produced by the method described in Example 4 and an empty vector used as a control, into which betaKlotho cDNA had not been inserted, were introduced into 3T3-L1 fibroblasts cultured as described in Example 1 by a lipofection method, thereby obtaining Puromycin-resistant clones. These different types of cells were stimulated with FGF21, and 10 minutes after the stimulation, a cell lysate was prepared. The activation of FRS2 and MAPK that were signaling molecules located downstream of FGFR was examined by a Western blotting method.

[3] = biological target: T2, betaKlotho (Mus musculus, UniProt Q99N32); test: Co-precipitation of FGF21 with soluble betaKlotho protein (anti-V5 beads, immunoblotting); assay type: binding; settings: presence or absence of heparin
T2 construct: a V5 tag and a His tag were added to the C-terminus of the extracellular domain of betaKlotho; made in house
T2 sequence (Q99N32 1-992): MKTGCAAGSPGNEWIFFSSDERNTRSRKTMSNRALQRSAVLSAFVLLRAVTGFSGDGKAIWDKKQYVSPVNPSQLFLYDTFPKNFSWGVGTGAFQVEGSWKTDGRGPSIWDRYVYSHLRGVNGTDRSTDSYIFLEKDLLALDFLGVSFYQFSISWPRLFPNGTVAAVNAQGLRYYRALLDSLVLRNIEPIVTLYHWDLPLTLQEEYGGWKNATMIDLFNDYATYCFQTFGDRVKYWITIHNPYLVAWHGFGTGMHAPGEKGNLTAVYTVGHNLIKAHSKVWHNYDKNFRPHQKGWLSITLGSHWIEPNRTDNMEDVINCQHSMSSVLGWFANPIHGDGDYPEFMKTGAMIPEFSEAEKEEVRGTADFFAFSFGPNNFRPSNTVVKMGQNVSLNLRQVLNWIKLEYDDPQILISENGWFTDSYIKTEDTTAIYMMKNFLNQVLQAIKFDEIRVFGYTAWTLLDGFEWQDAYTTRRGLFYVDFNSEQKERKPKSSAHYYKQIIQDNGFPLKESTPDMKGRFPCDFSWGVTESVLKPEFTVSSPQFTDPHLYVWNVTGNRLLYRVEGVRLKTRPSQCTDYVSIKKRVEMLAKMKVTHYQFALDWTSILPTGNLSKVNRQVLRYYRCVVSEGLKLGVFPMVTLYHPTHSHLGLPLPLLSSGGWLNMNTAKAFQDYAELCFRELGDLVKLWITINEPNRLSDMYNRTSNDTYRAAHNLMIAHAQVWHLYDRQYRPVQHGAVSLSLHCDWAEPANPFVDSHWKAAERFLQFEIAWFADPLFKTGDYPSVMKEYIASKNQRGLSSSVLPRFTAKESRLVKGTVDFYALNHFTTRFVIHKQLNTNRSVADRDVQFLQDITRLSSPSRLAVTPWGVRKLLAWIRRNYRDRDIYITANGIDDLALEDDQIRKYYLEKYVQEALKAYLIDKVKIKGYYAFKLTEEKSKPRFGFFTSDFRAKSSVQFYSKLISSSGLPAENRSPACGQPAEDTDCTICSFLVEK
Protocol: In the present example, the formation of a complex between betaKlotho and an FGF receptor or FGF21 was examined in a biochemical manner. Specifically, a V5 tag and a His tag were added to the C-terminus of the extracellular domain of betaKlotho in a tandem manner to prepare a soluble protein. Thereafter, the soluble betaKlotho protein was incubated with FGF21 in a test tube in the presence or absence of heparin, and betaKlotho was then precipitated using anti-V5 tag antibody-immobilized beads. Whether or not FGF21 bound to betaKlotho and was co-precipitated therewith was analyzed by an immunoblotting method.

T1 sequence (P22607 other isoform, or with tags, fused parts or gaps with the stated changes): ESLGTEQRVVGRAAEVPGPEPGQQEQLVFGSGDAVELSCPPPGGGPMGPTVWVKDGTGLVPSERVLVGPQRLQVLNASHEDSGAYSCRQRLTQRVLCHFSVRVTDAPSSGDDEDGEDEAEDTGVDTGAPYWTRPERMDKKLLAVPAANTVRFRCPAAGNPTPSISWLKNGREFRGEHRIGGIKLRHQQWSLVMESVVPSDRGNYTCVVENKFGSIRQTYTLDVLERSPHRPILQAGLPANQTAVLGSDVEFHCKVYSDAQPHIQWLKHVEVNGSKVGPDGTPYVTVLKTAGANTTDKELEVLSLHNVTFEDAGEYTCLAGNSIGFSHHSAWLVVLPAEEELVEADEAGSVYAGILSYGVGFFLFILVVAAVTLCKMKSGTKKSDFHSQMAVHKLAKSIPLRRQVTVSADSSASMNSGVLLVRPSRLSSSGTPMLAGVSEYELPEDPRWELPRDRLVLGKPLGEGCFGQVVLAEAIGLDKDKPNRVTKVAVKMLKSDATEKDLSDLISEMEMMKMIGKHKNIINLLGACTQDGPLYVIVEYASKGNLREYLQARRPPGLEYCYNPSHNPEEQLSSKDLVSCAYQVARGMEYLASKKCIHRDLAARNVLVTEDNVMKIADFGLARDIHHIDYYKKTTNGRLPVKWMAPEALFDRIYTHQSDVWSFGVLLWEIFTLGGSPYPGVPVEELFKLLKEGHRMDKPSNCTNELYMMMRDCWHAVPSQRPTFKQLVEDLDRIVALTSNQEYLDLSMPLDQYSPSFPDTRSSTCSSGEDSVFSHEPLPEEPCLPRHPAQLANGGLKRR
T1 sequence (Q86Z14 whole entry, stated change not applied): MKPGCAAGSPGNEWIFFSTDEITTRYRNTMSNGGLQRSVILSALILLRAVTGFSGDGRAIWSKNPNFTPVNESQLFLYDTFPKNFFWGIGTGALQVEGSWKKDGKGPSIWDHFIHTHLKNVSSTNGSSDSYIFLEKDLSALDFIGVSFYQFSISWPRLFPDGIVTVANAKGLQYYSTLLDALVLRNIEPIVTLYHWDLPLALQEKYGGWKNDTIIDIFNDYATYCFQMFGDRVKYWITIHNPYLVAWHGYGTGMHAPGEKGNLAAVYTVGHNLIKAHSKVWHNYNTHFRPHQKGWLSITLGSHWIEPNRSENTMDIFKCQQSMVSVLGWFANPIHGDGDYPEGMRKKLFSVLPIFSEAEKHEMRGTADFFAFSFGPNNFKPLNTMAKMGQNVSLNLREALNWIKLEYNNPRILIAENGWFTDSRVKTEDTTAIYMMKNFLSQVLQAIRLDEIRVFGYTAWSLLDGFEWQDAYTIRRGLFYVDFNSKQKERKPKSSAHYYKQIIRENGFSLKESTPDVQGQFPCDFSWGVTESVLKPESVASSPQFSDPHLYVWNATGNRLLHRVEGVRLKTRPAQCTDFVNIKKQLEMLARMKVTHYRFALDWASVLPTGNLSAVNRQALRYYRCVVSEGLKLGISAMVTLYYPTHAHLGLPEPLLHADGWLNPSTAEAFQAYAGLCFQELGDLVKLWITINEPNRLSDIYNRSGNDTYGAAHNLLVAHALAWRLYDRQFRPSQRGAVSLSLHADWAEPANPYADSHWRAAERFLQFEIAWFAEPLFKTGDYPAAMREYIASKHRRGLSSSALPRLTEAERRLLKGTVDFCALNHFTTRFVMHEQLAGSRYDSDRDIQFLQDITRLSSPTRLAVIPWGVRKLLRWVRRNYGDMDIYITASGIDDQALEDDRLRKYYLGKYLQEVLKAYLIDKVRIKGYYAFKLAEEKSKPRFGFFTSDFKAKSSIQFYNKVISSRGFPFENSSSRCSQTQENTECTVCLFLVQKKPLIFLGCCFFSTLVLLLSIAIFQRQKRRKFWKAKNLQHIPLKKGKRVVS

FGF1: conventional FGF used as a control
amount of DNA synthesized (thymidine incorporation) [1]: promoted the DNA synthesis

B1: FGF21: fibroblast growth factor 21; mouse-derived protein used in Examples 1-7 and 10-13 (protein)
chain: AYPIPDSSPLLQFGGQVRQRYLYTDDDQDTEAHLEIREDGTVVGAAHRSPESLLELKALKPGVIQILGVKASRFLCQQPDGALYGSPHFDPEACSFRELLLEDGYNVYQSEAHGLPLRLPQKDSPNQDATSWGPVRFLPMPGLLHEPQDQAGFLPPEPPDVGSSDPLSMVEPLQGRSPSYAS
phosphorylation levels of FRS2 and MAPK [2]: increased
co-precipitation (binding) with soluble betaKlotho protein [3]: precipitated in the presence of betaKlotho
